Test: yeast display, Sf9 membrane polyspecificity reagent, FACS + sequencing; frameworks hold sequencing errors
In short: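 Galactose-induced (36–48 hours) yeast carrying a synthetic nanobody display library were exposed to 10% biotinylated, detergent-solubilized Sf9 membrane reagent at 4 °C for 1 hour. FACS followed streptavidin microbead enrichment, using low and high (top ~1%) gates for expression (anti-HA) and reagent binding (streptavidin). Colony PCR, MiSeq 2 × 250 sequencing and CDR-length filtering followed. Labels for polyreactivity reflect the gate of origin.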

| Sequence | polyreactivity (PSR sort gate) |
| --- | --- |
| QVQLVESGGGLVQAGGSLRLSCAASGRIIAGYTMGWYRQAPGKERELVAAIRSSGRTHYADSVKGRFTISRDNAKNTVYLQMNSLKPEDTAVYYCAARWTYTFAYRFDYWGQGTQVTVSS | high polyreactivity |
| QVQLVESGGGLVQAGGRLRLSCAASGLIFVWYAMGWYRQAPGKERELVAAISTSGGSTYYADSVKGRFTISRDNAKNTVYLQMNSLKPEDTAVYYCAAARRWWPQGYYWGQGTQVTVSS | high polyreactivity |
| QVQIVESGGGLVQAGGSLRLSCAASGFTFGVYAMGWYRQAPGKERELVAAISVSGGRTYYADSVKGRFTISRDNAKNTVYLQMNSLKPEDTAVYYCAADLGLKTSSRRTSMYYWGQGTQVTVSS | high polyreactivity |
| QDQLVESGGGLVQAGGSLRLSCAASGSTFQWYAMVWYRQAPGKERELVAAINKSGGTTYYADSVKGRFTISRDNAKNTVYLQMNRLKPEDTAVYYCATDNPVVYQPGNLDYWVQGTQVTVSS | low polyreactivity |
| QVQLVETGGGLVQAGGSLRLSCAASGSIFLKYAMGWYRQAPGKERELVAAISWSGGRTYYADSVKGRFTISRDNAKNTVYLQMNSLIPEDTAVYYCAAAGRVNNGYRGYGYWGQGTQVTVSS | high polyreactivity |
| QVQLVESGGGLVQAGGSLRLSCPASGRTFRYYAMGWYRQAPGKERELVAAITANGGSTFYADSVKGRFTISRDNAKNTVYLQMNSLKPEDTAVYYCAARFYTSSRYNYWGQGTQVTVSS | high polyreactivity |
| QVQLEESGGGLVQAGGSLRLTCAASGSIFDYNAMGWYRQAHGKERELVAAITSGGITYADSVKGRFTISRDNAKNTVYLQMNSLKPEDTAVYYCAALDKLSKYRRYRYGYWGQGTQVTVSS | high polyreactivity |
| QVQLVESGGGLVQAGGSLRLSCASSGFTFWYYAMGWYRQAPGKERELVASISRTGGTTYYADSVKGRFTISRDNAKNTVYLQMNSLKPEDTAVYYCNARPKVYYREYDYWGQGTQVSVSS | high polyreactivity |
| QVQLVESGGGLVQAGGSLRLSCAASVRIFGYYAMGWNRQAPGTERELVATINSVGSTNYADSVKGRFTISRDNAKNTVYLQMNSLKPEDTAVYYCATDSAYTFFTYRLWRHGYWGQGTQVTVSS | low polyreactivity |
| QVQLVESGGGLVQAGGSLRVSCAASGRTFLSYTMGWYRPAPGKERQLVARISASGGSTYYADSVKGRFTISRDNAKITVYLQMNSLKPEDTAVYYCARVPYYLYYVTRPYDYWGQGTLVTVSS | low polyreactivity |
| QVQLVESGGGLVQAGGSLRLSCAASGGIFYPNVMGWYRQAPGKEREFVAAITSSSGSTYADSVKGRFTISRDNAKNTVYLQMNSLKPEDTAVYYCAAVENWWGIWVRYDYWGQGTQVTVSS | low polyreactivity |
| QVQLVESGGGLVQAGGSLRLSCAASGLIFKYNVMGWYRQAPGKERELVAAITWGGTRTYYADSVKGRFTISRDNAKNTVYLQMNSLKPEDTAVYYCAVRSARIERNYWGQGTQVTVSS | low polyreactivity |
| QVQLVESGGGLVQAGGSLRLSCAASGRTYSYYAMGSYRQAPGKERELVAAITTSGGSTYYADSVKGRFTISRDNAKNTVYLQMNSLKPEDTAVYYCNALSSGVYLYDYWGQGTQVTVSS | high polyreactivity |
| QVQLVESGGGLVQAGGSLRLSCAASGLTFVYNNMGWYRQAPGKERELVAAINWSGGRTYYADSVKGRFTISRDNAKNTVYLQMNSLKPEDTAVYYCAALYVPNTPTYKYDYWGQGTQVTVSS | low polyreactivity |
| QVQLVESGGGLVPAGGSLRLSCAASGSIFVQNAMGWYRQAPGKERELVAVINSGDSTNYADSVKGRFTISRDNAKNTVYLQMNSLKPEDTAVYYCNADVSYTSEDQRALFTNVYYWGQGTQVTVSS | low polyreactivity |
| QVQLVESGGGLVQAGGSLRLSCAASGTMGWYRQAPGKERELVAAISQSGGSTYYADSVKGRFTISRDNAKNTVYLQMNSLKPEDTAVYYCAVDPRYGHPRRDYWGQGTQVTVSS | low polyreactivity |
| QVQLVESGGGLVQAGGSLRLSCAASVYTVVWYAMGWYRPAPGKERELVAVITSGGGTNYADSVKGRFTISRDNAKNTVYLQMNSLKPEDTAVYYCAAVWYTSRQKYDYWGQGTQVTVSS | low polyreactivity |
| QVQLVESGGGLVQAGGSLRLSCAASGRIFSYAMGWYRQAPGKERELVAGISRSGGSTYYADSVKGRFTISRDNAKNTVYLQMNSLKPEDTAVYYCAAVKIRTVYKYNYWGQGTQVTVSS | high polyreactivity |
| QVQLVESGGGLVQAGGSLRLSCAASGIIFGRYAMGWYRQAPGKERELVAAISGSGGITYYADSVKGRFTISRDNAKNTVYLQMNSLKPEDTAVYYCATRKYLTYNYWGQGTQVTVSS | high polyreactivity |
| QVQLVESGGGLVQAGGSLRLSCAASGSIFEVYAMGWYRQAPGKERELVAAISGNGGSTYADSVKGRFTISRDNAKNTVYLQMNSLKPEDTAVYYCAAVPYGYGLASDSIFDYWGQGTQVTVSS | high polyreactivity |
| QVQLVESGGGLVQAGGSLRLSCAASGFTSCDNDMGWYRQAPGKERELVAAISRGGSTNYADSVKGRFTISRDNAKNTVYLQMNSLKPEDTAVYYCATAAVTPVWYDYWGKGTQVTVSS | low polyreactivity |

| Sequence | polyreactivity (PSR sort gate) |
| --- | --- |
| QVQLVESGGGLVQAGGSLRLSCAASGFNYSNAMGWYRQAPGKERELVAAITSRGGSTYYADSVKGRFTISRDNAKNTVYLQMNSLKPEDTAVYYCATKVWTRFIYYYWGQGTQVTVSS | high polyreactivity |
| QVQLVESGGGLVQAGGSLRLSCAASGIIFRLNAMGWYRQAPGKERELVAAIRRRGGSTYYADSVKGRFTISRDIAKNTVYLQMNSLKPEDTAVYYCAKDPHGSDFGYWGQGTQVTVSS | low polyreactivity |
| QVQLVESGAGLVQAGGSLRLSCAASGSTFGINAMGWYRQAPGKERELVASIRGDGGSTYYADSVKGRFTISRDNEKNTVSLQMNSLKPEDTAVYYCNKDDFSSPGENRYHSDPYDSWGQGTQVTVSS | low polyreactivity |
| QGQLVESGGGLVQAGGSLRLSCPASGRIFNTYAMGWYRQAPGKERELVAAINWSGGRTYYADSVKGRFTISRDNAKNTVYLQMNSLKPEDSAVYYCKARGRRRVPEFDYWGQGSQVTVSS | high polyreactivity |
| QVQLVESGGGLVQAGGSLRLSCAASGSTFYANAMGWYRQAPGKERELVAAIDSGGTTTYADSVKGRFTISRDNAKNTVYLQMNSLKPEDTAVYYCAADQYWYIWYDYWGQGTQVTVSS | low polyreactivity |
| QVQLVESGVGLDQAGGSLRLSCAASGSTFFVNAMGWYRQAPGKEMELVAAISTSGGRTYYADSVKGRFRISRDNAKNNLYLQMKSLKPEDTAVYYGAAVSLSGGYGEYDYWGQGTKVTVSS | high polyreactivity |
| QVQLVESGGGLVQAGGSLRLSCAASGRTFRIYARGWSRQAPGKERELDAAITKRGGITYYADSVKGRFTISRDNAQNTVYLQMNSLKPEDTAVYYCAKAWKSWSRISKSTFYWTSGDYWGQGTQVTVSS | high polyreactivity |
| QVQLVESGGGLVQAGGSLRLSCAASGFTITNYAMGWYRQAPGKERELVAAISTGGGRTYYADSVKGRFTISRDNAKNTVYLQMYSLKPEDTAVYYCAVVPYNISKTEQPGMDYWGQGTQVTVST | high polyreactivity |
| QVQLVESGGGLVQAGGSLRLSCAASGFIFGYNAMGWDRQAPGKERELVAAITRSGGRTYYADSVKGRFTISRDNAKNTVSLQMNSLKPEDTAVYYCAASRFATYPRWYDYWGQGTQVTVSS | low polyreactivity |
| QVQLVESGGGLVQAGGSLRLSCAASGITFDSNAMGWYRQAPGKERELVAAISASGGRTYYADSVKGRFTISRDNAKNTVYLQMNSLKPEDTAVYYCNARYYVKHPLPYDYWGQGTQVTVSS | low polyreactivity |
| QVQLVESGGGLVQAGGSLRLSCAASGRIFGTNAMGWYRQAPGKERELVAAITWNADDTYYADSVKGRFTISRDNAKNTVYLQMNSLKPEDTAVYYCAADSYEGYYYWGQGTQVTVSS | low polyreactivity |
| QVQLVESGGGLVQAGGSLRLSCAASGRTFWVYAMGWNRQATGKERELVATISKSAGITSYADSVKGRFTFSRDNAKNTVYLQMNSLKPEDTAVYYCAADKSYRRVYYWGQGTQVTVSS | low polyreactivity |
| QVQLVESGGGLVQAGGSLRLSWAASGFTFYRYAMGWYRQAPGKERELVAAITRSGSRTYYADSVKGRFTISRDNAKNTVYVQMNSLKPEDTAVYYCNTDGGDHPTARYGYWGQGTQVTVSS | high polyreactivity |
| QVQLVESGGGLVQAGGSLRLSCAASGRIFVGNAMGRYRQAPGKERELVAAISRSGGRTYYADSVKGRFTISRDNAKNTVYLQMNSLKPEDTAVYYCNTRVYAGKYDYWGQGTQVTVSS | high polyreactivity |
| QVHLVESGGGLVQAGGSLRLCCAASGITFQVYAKGCYRPAPGKERELVAAINWSGTRTYYADSVKGRFTISRDNAKNTVYLQMNSLKPEDTAVYYCAAAERSLGYYYWGQGTQVTVTS | high polyreactivity |
| QVQLVESGGGLVQAGGSLRLICAASGSTFGRYAMGWYRQAPGKERELVAGITYGSTYYADSVKGRFTISRDNAKNTVYLQMHSLKPEDTAVYYCAADLSYTSVHGYRSDTLMDYWRQGTQVTVSS | low polyreactivity |
| QVQLVESGGGLVQAAGILRLSCAASGFIVVRNAMGWYRQAPGKERELVAAISAIGSSTYYADSVKGRFTISRDNAKNTVYLQLNSLKPEDTAVYYCAASGSRVSERSPTRLDYYCGQGTQVTVSS | high polyreactivity |
| QVQLVESGGGLVQAGGSLRLSCAASGRIGRNAMGWYRQAPVKERELVATISWSAGRTFYADSVKGRFTISRDNAKNTVYLQMNSLKPEDTAVYYCAAGGWQRGYYWGQGTQVTVSS | high polyreactivity |
| QVQLVESGGGLVQAGGSLRLSCAASGLTFDKYTMGWYRQAPGKERELVARISTSGSRTYYADSVKGRFTISRDIAKNTVYLQMNSLKPEDTAVYYCNKDGWIRRRRGYDYWGQGTQVTVSS | high polyreactivity |
| QDQLVESGGGLVQAGGSLRLSCAASGRIFGINAMGWYIPAPGKERELVAAINWSGGSTYYADSVKGRFTISRDNAKNTVYLQMNSLKPEDTAVYYCATYQAGYYQSTYDYWGPGTQVTVSS | high polyreactivity |
